Experimental data published in PMC3113405 (Nature structural & molecular biology, 2010).

Tests used:
[1] = target: T1, Cog2 with an N-terminal 7×His tag (S. cerevisiae, UniProt P53271 1-262); assay: negative-stain single-particle electron microscopy with GFP labelling
T1 sequence (looked up): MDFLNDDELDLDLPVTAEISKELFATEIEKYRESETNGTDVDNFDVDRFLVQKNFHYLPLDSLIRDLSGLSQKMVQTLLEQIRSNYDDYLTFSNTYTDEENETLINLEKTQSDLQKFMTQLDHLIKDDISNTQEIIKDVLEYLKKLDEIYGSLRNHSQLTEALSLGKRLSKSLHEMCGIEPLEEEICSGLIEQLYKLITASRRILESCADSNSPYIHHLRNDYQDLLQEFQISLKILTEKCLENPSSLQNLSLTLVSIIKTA

[2] = target: T2, Cog8 (S. cerevisiae, UniProt Q04632 1-607); assay: negative-stain single-particle electron microscopy
T2 sequence (looked up): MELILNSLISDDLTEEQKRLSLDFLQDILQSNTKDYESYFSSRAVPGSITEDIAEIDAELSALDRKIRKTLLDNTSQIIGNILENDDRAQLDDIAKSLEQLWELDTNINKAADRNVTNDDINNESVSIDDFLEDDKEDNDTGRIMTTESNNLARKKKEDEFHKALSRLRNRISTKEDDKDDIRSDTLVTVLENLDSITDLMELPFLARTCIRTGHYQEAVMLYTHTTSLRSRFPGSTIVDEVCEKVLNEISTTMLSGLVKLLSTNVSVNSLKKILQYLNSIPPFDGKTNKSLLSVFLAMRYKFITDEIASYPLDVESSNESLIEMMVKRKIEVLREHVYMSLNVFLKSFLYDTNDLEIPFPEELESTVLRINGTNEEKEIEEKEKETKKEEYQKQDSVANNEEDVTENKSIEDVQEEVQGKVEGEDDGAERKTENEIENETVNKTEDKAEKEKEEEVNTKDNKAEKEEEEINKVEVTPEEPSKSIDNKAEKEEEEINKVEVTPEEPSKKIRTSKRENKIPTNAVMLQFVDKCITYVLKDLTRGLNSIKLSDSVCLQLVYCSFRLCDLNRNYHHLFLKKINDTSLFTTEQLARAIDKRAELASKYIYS

B1: Cog1 (natural protein, S. cerevisiae, UniProt P53079 1-417, looked up)
chain: MDEVLPLFRDSHIPQIKDYQLELQNDLTKTNEAFQKNLLKNYNKILSLTDSVNDLSLNLKNVDQDFKSLCFNDEKFQLNKLTPLPYQTTTHISPPRDEEKVSIPSQNILVISNWTISINNFCNRIVTSTTPSRIFDELLLNFHELSLIPVPSKFEALVKDKCCRLQKFLVDSMKTLNLTLLQWVKLYNLLNTEFSSKWDDDLLSIFNESLFETLFNDNVQALLISSANSKDHQYHSNQQYKDAIVVDFVNSSTFRDHLIRRTVKEINTHLDTLSTLRAKLKEPETLHKLDIFHDNDTNLNDGTVSPLDDDALKQYIDTAVFYSKGLTNDTTLQIYQTVQPTIEILQNLELYKCPQETLTDLRNKLITQLQEFKTQISSRLPSPLENSTSVVDDFITSYNNHNLLQLVIDQITQLRQQ
stoichiometry N [1]: 1
binding result [2]: binds

B2: Cog3 (natural protein, S. cerevisiae, UniProt P40094 1-801, looked up)
chain: MARSRKNSLVRDIASHPTIPESQTIVGLLDDSYLFDKLKKLSLAVENSDSLQRTDVSEGCSEVNGSEATTSADVKKTNKYLYYTTYLDQLNIKIDEYKVVLDQTRQVNDQLDSSIKKFRKISQDTGAFIEETKTIYEKQSKLSNLTESIPKALHYFEVLDPIMRRLNHATSPAIVKKSSFTTMLATIDESLRFLDENSDLKDAAAYRIKFKQCLIRACELISHFLTNLLKQTNQEILDKTKNKNSLTGLPSTTRDAFLYSKFYTIADTFKIQVSEIVKRSNEKAYNKYHDELNSILYECFNHYFQTRLRLLTPVIWSHIDEIVVKDKDQGLVKFIQDGKVYFQQLCADEYKLFVEFFPEKECRFKINQWFLQLCEPLYDSIRVRVLKETDICTLCDSVTLFAPYYEFEEGSEEYVKQFTDIQYDKLFEPIVQKVQARLILRVQIYVQQNILSYRPTRDVFMISNRRRKSKTSLQGGNEDATTSDDNPDPLLESYLSSFKNRSILPISPNDADDKSIDSEESTDKISQLQTYYPPLLKTLALLSKIYEMINSVVFDDLAHHVVHDCIVSLRNAYDMVIKSSAGKSDFNNLDISLAYLKNLLMLRDSIQNFNIQYTVNETYLDFSGVEGFFKSLKENGRNVLKKTKSSSILTLARELVPKVVNNMVDARTELISELRNVIKDFTESTSLELIDDTLDINSDEDLLSKNVKLRENIKARLPRIYEQILNYIDDQEIVTNLLDAVQELITQSYSKYYETITELAENGKFAKDQVADVMYLDVFTDFFAKEVADLLRNGDIDTITK
stoichiometry N [1]: 1

B3: Cog4 (natural protein, S. cerevisiae, UniProt Q06096 1-861, looked up)
chain: MEGQKSNASWESSIIEGQLSKNLARYTLLLDKLSTLSQIDKLSEVIANDYAKQSKQLNAFVQQSQSSLNKESRKLELQRTNLTTTLTQFHETVATISSSNARAKAIHDDIETVDQERALVNKTLQFVKDVRTLKNNISLAHSALETKDYLVAATAINEIRSLPDKKLIVSEFAKKVVPSSEIPEEPAILIKNWCKELTSLFQEQFMEATRTQDIKELTLMFKMFPMIGQDVLGLDLYSKYVCDIIADESRKIMSNSMENSTKFQGFFSQVLLHLFKIVSTIINDHSKVIATCYGKKHMVHVMEKVEKEADLQASLILDIFMETRKIERTIHDINEWEHSQKNEDVNIDSNQSDIETDGETEKSSIISIHDLALLIMEFSQILQNWSMYSRFYSVKWNEFSDLHPHVLQPPPPIADGKFALKLKQDKVFDEFQVFVLNHLQRSFRNSISLEELPSLNDLITAVPLNDHDNISYPVTSVLDDLILLVRKNLISVVNTGQFKLLASFLNELVKFFQNRFLVKFMQNKFKLLQSKLASNVSLKRYIPKGEEQSATSRSVSPPANKFSPLSRFTFRGAAASALTNIQSNLQAVVAEDEDSILALHHYLIYLNTLYLSKVYVHRLLSIEILEDDSQRILRDNFPFDNDAAQLQNLIINSEKLVLEQTDKLSKWAVKYLFQNILQNRVRNLLGTVFVNSASSNSSTSNQKNVSRDYSAGSNQKNYITSIEDFEDLSQINSFNSKWNQLIIPYKNILHNEAYAELLSVIVDYIVTTLEQRIWTLEFNELGVTKLDRELSLFIGNMCGLNYNLREKFLKLTQIVLLLGLDDDNFDLTTGDIKDDFNGTFDWVINSQERIKARNMKIDRTQ
stoichiometry N [1]: 1
